Measured values published in US20130344069A1 (SORRENTO THERAPEUTICS, published 2013).

B1: anti-IGF1R antibody B10 (antibody, V domains shown)
VH: QVQLVQSGAEVKKPGASVKVSCKGSGYNFPTQAIHWVRQAPGQRLEWMGWTNTANGNAKYSQKFQGRVTITRDTYASTDYMELSSLTSEDTAIYYCTRDRFTGSGTYGMDVWGQGTTVTVSS
VL: SYELMQPSSVSVSPGQTARITCSGDLLTRRYARWFQQKPGQAPLLIIYRDTVRPSGIPERFSASSSGATITLTISGAQLEDEADYYCYSATDNNVVFGGGTKLTVL
notes: Fully human antibody of an IgG class; also called clone B10
B2: anti-IGF1R antibody C8 (antibody, V domains shown)
VH: QVQLVQSGAEVKKPGSSVKVSCKASGGSFNSFSISWVRQAPGQGLEWMGGITPMFGIGDNAQKFQDRVAITADESMSTFYMELSNLRFEDTAMYFCAREVGGLGFDVWGQGTTVTVSS
VL: VIWMTQSPSSLSASVGDRVTFTCQASQHISKYLNWYQQKPGKAPKLLIYDASNLETGVPSRFSGSGSATDFTLTISSLQPEDFATYYCQQSYLTSYTFGQGTKVDIK
notes: Fully human antibody of an IgG class; also called clone C8
B3: anti-IGF1R antibody A6 (antibody, V domains shown)
VH: QVQLVQSGAEVMKPGASVKVSCKASGYTFTSYGISWVRQAPGQGLEWMGWISAYNGNTNYAQMLQGRVTMTTDTSTSTAYMELRSLRSDDTAVYYCARRGLSSYYYGMDVWGQGTTVTVSS
VL: QPVLTQPPSVSAAPGQKVTISCSGGTSNVANNYVSWYQQLPGTAPKLLIYGNSNRPSGVPDRFSGSKSGTSASLAITGLQAEDEADYYCQSYDTSLSGYVFGSGTKVTVL
notes: also called clone A6
B4: anti-IGF1R antibody B9 (antibody, V domains shown)
VH: EVQLLESGGGLVQPGGSLRLSCAASGFTFSSYEMNWVRQAPGKGLEWVSYISTGDSTRSYADSVRGRFTISRDNAKNSLYLQMNSLRAEDTAVYYCARESGTWYGGWYFDLWGRGTLVTVSS
VL: QSVVTQPPSVSAAPGQKVTISCAGSTSNIGNNFVSWYQQLPGTAPKLLIYDNNKRPSEIPDRFSGSKSGTSATLGITGLQTGDEADYYCVTWDSSLSVVLFGGGTKVTVL
notes: Fully human antibody of an IgG class (captured on an anti-hIgG Fc sensor, detected with anti-human IgG); also called clone B9

How the values were obtained:
[1] = biological target: T1, IGF1R on MCF7 breast cancer cells (UniProt P08069 31-1367, limits assumed); assay: flow cytometry on MCF7 cells, PE goat anti-human IgG secondary, median FL2-H, non-linear regression fit, the concentration axis is LogM
T1 construct: whole, on cells; Endogenous receptor on MCF7 cells; also called MCF7 cells expressing IGF1R
T1 sequence (P08069 31-1367 limits assumed): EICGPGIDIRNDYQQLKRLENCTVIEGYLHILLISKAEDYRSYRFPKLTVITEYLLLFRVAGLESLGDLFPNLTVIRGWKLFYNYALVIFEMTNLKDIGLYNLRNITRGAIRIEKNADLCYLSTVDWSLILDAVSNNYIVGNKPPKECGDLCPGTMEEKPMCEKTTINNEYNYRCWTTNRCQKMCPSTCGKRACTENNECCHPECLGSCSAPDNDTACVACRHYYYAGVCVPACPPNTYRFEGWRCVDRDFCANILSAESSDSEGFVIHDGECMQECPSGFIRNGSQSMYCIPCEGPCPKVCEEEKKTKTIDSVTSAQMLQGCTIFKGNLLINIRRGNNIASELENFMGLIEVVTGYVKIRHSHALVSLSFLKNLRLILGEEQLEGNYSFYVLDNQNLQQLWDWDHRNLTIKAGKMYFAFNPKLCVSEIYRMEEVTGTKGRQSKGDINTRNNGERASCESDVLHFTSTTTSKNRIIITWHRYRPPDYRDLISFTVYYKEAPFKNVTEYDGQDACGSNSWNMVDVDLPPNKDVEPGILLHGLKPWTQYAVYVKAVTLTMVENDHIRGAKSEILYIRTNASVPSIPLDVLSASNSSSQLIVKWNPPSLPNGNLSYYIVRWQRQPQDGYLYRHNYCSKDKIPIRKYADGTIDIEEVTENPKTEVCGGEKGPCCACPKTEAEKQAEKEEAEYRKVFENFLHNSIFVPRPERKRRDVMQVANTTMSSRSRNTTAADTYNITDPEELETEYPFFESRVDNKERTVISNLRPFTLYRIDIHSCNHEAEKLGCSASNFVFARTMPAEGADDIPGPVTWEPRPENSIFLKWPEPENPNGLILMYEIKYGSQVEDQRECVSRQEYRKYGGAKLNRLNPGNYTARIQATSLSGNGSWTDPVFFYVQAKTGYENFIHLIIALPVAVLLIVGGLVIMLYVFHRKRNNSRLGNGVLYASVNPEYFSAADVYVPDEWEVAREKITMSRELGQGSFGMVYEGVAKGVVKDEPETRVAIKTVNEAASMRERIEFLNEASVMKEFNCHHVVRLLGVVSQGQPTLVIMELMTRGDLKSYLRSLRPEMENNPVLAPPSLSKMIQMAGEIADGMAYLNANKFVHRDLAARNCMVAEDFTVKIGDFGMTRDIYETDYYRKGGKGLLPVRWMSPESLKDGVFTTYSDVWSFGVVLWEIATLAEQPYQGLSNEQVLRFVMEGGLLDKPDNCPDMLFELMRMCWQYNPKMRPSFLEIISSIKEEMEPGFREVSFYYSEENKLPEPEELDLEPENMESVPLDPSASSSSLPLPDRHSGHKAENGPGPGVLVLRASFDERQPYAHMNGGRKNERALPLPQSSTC
Protocol: (§1) This example illustrates in vitro data for anti-IGF1R antibodies cellular binding EC₅₀ measurements. […] In this example, the experimental procedure is as follows: 50,000 MCF7 breast cancer cells were aliquoted into the wells of a 96-well, v-bottom plate in 100 μl FACS Buffer (PBS+2% FBS). Cells were spun down, washed 1× with FACS Buffer, and then resuspended in 25 μl of antibody solution in triplicate. After 0.5 hr incubation, cells were washed 1× with FACS Buffer and resuspended in 50 μl PE-conjugated, goat anti-human IgG (γ-chain specific) secondary antibody (Southern Biotech Cat #2040-09). Cells were further incubated for 0.5 hr and then washed 1× with FACS Buffer. Cells were resuspended in 25 μl FACS Buffer and the median fluorescence intensity in the FL2-H channel was determined using the Intellicyt HTFC flow cytometer.
(§2) While these values range over orders of magnitude, all antibodies show strong, specific binding to MCF7 cells expressing IGF1R. Data was collected on the Intellicyt HTFC flow cytometer, processed using FlowJo software, and analyzed and plotted in Graph Pad Prizm using non-linear regression fit. Data points are shown as the median fluorescence intensity (MFI) of positively labeled cells +/− Std Error.

[2] = biological target: Insulin Receptor (UniProt P06213-2 28-944, limits assumed); assay: ELISA, one condition
Chain of Insulin Receptor (P06213 other isoform, or with tags, fused parts or gaps limits assumed): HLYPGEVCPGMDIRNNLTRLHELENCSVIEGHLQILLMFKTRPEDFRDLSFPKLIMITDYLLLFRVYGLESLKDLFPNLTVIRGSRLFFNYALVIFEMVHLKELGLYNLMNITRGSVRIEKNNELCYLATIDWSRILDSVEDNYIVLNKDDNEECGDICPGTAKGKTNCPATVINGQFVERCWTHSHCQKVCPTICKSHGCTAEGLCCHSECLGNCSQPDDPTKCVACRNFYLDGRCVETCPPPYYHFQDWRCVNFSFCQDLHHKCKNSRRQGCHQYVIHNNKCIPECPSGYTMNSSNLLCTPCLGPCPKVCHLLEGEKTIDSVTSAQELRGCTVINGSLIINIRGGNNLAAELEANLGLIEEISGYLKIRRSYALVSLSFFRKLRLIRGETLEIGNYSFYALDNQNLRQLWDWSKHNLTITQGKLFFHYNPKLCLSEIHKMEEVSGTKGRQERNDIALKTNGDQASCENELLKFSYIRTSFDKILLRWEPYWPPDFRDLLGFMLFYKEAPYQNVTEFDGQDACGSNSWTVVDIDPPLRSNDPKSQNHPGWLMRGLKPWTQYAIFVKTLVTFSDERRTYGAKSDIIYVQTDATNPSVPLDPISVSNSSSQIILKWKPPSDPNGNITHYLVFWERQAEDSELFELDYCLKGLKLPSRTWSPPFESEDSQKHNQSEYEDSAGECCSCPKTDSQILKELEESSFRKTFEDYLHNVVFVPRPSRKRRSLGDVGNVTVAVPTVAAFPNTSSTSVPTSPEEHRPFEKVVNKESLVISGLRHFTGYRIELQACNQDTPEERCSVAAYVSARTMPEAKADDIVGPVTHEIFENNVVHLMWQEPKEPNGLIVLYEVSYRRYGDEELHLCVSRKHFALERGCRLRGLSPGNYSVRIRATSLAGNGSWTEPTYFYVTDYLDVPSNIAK

[3] = biological target: T1, IGF1R on MCF7 breast cancer cells; assay: flow cytometry, binding to MCF7 cells, PE anti-human IgG detection
Protocol: as §1, §2

[4] = biological target: T1, IGF1R on MCF7 breast cancer cells; assay: cell-based or functional assay
[5] = biological target: T2, rhIGF1R (human, UniProt P08069 31-932, limits assumed); assay: BLI, Forte Bio Octet Red; B9 on anti-hIgG Fc capture sensor
T2 construct: Recombinant protein used in the Octet measurements; also called recombinant human IGF1R
T2 sequence (P08069 31-932 limits assumed): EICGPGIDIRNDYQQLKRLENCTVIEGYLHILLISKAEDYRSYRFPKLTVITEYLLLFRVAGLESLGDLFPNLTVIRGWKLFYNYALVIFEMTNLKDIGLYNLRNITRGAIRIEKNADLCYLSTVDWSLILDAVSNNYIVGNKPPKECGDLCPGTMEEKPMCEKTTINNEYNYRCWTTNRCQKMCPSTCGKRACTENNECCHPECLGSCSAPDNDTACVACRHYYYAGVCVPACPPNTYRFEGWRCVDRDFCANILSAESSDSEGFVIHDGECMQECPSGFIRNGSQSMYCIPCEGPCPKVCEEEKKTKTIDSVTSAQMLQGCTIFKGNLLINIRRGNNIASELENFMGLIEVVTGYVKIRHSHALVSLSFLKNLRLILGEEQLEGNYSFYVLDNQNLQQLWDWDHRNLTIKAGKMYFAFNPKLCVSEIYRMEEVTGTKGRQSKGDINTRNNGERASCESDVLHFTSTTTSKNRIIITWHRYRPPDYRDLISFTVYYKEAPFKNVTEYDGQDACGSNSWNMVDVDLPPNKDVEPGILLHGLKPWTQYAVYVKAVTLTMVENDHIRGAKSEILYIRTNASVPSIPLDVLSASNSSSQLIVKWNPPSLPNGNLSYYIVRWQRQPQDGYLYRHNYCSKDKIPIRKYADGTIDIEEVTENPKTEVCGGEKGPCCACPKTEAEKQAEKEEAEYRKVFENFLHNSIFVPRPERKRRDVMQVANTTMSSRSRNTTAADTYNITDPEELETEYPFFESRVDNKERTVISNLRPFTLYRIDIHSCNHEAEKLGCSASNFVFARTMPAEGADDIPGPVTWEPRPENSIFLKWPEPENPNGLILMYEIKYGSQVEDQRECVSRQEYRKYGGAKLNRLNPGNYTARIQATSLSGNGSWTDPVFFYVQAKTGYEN

Binder	EC50 [1] [nM]	binding result [2]	EC50 [3] [nM]	IC50 of inhibition of IGF1-stimulated IGF1R auto-phosphorylation in MCF7 cells [4] [nM]	Kd [5] [nM]
B1	5.83	no binding (tested: not given)			
B2	16.1	no binding (tested: not given)			
B3	0.705				
B4	0.0374	no binding (tested: not given)	0.0037	0.094	1.25
